Experimental data from patent US20250121063A1, “COMPOSITIONS OF […] RESISTANCE TO P[…] RELATED METHODS OF USE” (priority 2023, published 2025).
“Also recorded” adds a separate entry of the source.

Columns and labels:
B16-OVA melanoma = test: Adoptive transfer of shRNA-transduced OT-1 cells into mice bearing B16-OVA melanoma; type: in vivo, mouse; settings: compared with shFF or HBSS
Text: Referring to FIG. 1, this indicates a normal mouse CD8+ treated with a construct expressing: control short hairpin RNA (shFF) or short hairpin RNA against mouse PTGIR gene. OT-1 is an anti-OVA T cell receptor that recognizes ovalbumin epitope (OVA) antigen variant E1 ([…]) restricted by H2-Kb. Mouse T cells that constitutively express OT-1 (“OT-1 cells”) were transduced with a construct expressing short hairpin RNA against mouse Ptgir gene (“shPTGIR”) or control short hairpin RNA (“shFF”; against firefly luciferase).
At day 0, mice were inoculated with […] B16-OVA melanoma cells (these cells constitutively express the OVA protein and present OVA epitopes on cell surface MHC). On Day 7 mice received (i.v.) 1E6 adoptively transferred gene modified OT-1 cells or Hank's buffered saline solution (HBSS).
At day 0, mice inoculated with B16-OVA melanoma. On Day 7 mice received adoptively transferred, gene modified CD8+ cells on Day 7 or saline (HBSS).
Referring to FIG. 2, this example was performed in the same way as Example 2.

[1] = tested on: LCMV (Lymphocytic choriomeningitis) clone 13; settings: mouse, in vivo
P14 CD8+CD45.2+ T-cells = type: cell-based, mouse

B1: shPTGIR (nucleic acid)
DNA: AGCACGAGAGGAUGAAGUUUACUAGUGAAGCCACAGAUGUAGUAAACUUCAUCCUCUCGUGCC
modifications: expressed or natural sequence
- tumor growth (B16-OVA melanoma; 1E6 gene modified OT-1 cells i.v. on Day 7 after B16-OVA inoculation): reduced tumor growth
- survival (B16-OVA melanoma; mice with B16-OVA melanoma, OT-1 cells transferred Day 7): increased survival
- LAG-3 expression [1]: lower LAG-3 expression
- absolute abundance of transduced CD45.2 T-cells [1]: higher absolute abundance; also recorded: greater absolute numbers
- expansion of adoptively transferred cells (CD45.2+) [1]: highly significant expansion
- percentage of Tim-3 [1]: lower percentage of Tim-3
- phenotypic markers of exhaustion [1]: reduced phenotypic markers of exhaustion
- IFNγ and TNFα response to antigen stimulation (P14 CD8+CD45.2+ T-cells): capable of responding to antigen stimulation
